Assay results taken from PMC3102090, “Interaction between Amyloid Beta Peptide and an Aggregation Blocker Peptide Mimicking Islet Amyloid Polypeptide” (PLoS ONE, 2011).
Square brackets hold non-standard residues; d marks the D form. Ends that are not written are not given here. fluorescein = fluorescein (N-terminal label); NMeI = CC[C@H](C)[C@H](NC)C(=O)O; Sar = CNCC(=O)O

Columns and labels:
Aβ and α-synuclein = conditions: ref [41]; cited from earlier work
From the text: In agreement with their intrinsic aggregation propensities, the agg ...

[1] = biological target: IAPP-GI (Fluos-IAPP-GI) (Homo sapiens) (UniProt P10997); test: fluorescence titration; conditions: cited from earlier work
Sequence of IAPP-GI (Fluos-IAPP-GI) (Homo sapiens) (P10997 32-73): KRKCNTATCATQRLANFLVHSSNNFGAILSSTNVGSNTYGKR

[2] = CLEANEX-PM-FHSQC water-amide proton exchange; assay type: physicochemical; conditions: 30 µM Aβ42, no IAPP-GI, pH 7.3, 278 K
Protocol: In a CLEANEX-PM-FHSQC experiment, exposed parts of the backbone gain high signal intensity already at short mixing times due to efficient exchange with water, while for more protected groups the signal intensity only rises at longer mixing times.
To this end, CLEANEX-PM-FHSQC experiments were recorded on a Bruker Avance 600 MHz spectrometer equipped with a triple-resonance room temperature probe. […] The intensity of peaks as a function of mixing time was fitted to the following equation: [drawing 1] (1) where V0 is the intensity of the peak in a control FHSQC experiment, k is the normalized rate constant related to the forward exchange rate constant between water and NH protons, and R1A and R1B are apparent longitudinal relaxation rates for protein and water [32].

[3] = Side chain 1H-15N HSQC of histidines of Aβ42; assay type: physicochemical; conditions: 30 µM Aβ42, no IAPP-GI, pH 7.3, 278 K
Protocol: ^1H-^15N HSQC spectra of the side chains of histidines (H6, H13 and H14) were acquired on a Bruker AMX 600 MHz spectrometer equipped with a triple-resonance cryogenic probe. […] A 30 µM sample of Aβ42 was also measured. The INEPT transfer delay was selected as 27.8 ms, to obtain the coherence transfer from the ε1H and δ2H protons to the ε2N and δ1N through the ^2J coupling constant (Figure 1B). The carrier and SWH values were 5.00 ppm and 6010 Hz in the direct dimension, and 185.31 ppm and 9728 Hz in the indirect dimension. The experimental matrix was 2K*256 complex data points, which after apodization through a 90°-shifted squared sine bell function in both dimensions was transformed to a final matrix of 8K*512 data points.

Aβ40 = Aβ40 (Homo sapiens, UniProt P05067); conditions: Fluos-IAPP-GI (1 nM) titrated with low nano- to submicromolar Aβ40; fluorescence; ref [18]; read-out: app. Kd, IAPP-GI-Aβ40 interaction; cited from earlier work
Sequence of Aβ40 (P05067 672-711 limits assumed): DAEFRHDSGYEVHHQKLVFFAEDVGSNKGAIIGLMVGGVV

IAPP = conditions: ref [38]; cited from earlier work
[4] = cited from earlier work
From the text: Therefore, we needed to find an experimental condition under which these two peptides predominantly populate a monomeric state.

Sequence of Amyloid beta 40 1-40 (P05067 1-40): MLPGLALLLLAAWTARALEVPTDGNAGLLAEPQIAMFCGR

Compound: O=C(O[C@@H]1Cc2c(O)cc(O)cc2O[C@@H]1c1cc(O)c(O)c(O)c1)c1cc(O)c(O)c(O)c1 [(-)-epigallocatechin gallate]
- redirection of Aβ and α-synuclein into off-pathway oligomers (Aβ and α-synuclein): redirection of Aβ and α-synuclein into off-pathway oligomers

Compound: Amyloid beta 40 1-40 (from UniProt P05067)
- Kd [1]: 41.2 nM

Compound: Aβ42: amyloid-beta peptide; 15N-uniformly labeled Aβ1-42 purchased from rPeptide
- water-amide proton exchange rates of Aβ42 compared with Aβ40 [2]: the exchange rates are reduced in regions (Figure 9) that are also affected upon addition of IAPP-GI to Aβ40
- histidine side-chain peak pattern of pure Aβ42 [3]: very similar to that of Aβ40 with IAPP-GI

Compound: Fluos-IAPP-GI: N-terminal fluorescein labeled IAPP-GI (fluorescein-KCNTATCATQRLANFLVHSSNNF[Sar]A[NMeI]LSSTNVGSNTY; ends and bridges not checked)
- Kd (Aβ40): 50 nM

Compound: N-terminal part (residues 1–28): N-terminal part of Aβ (residues 1–28)
- affinity of N-terminal part of Aβ for IAPP (IAPP): low µM affinity

Compound: human IAPP: Islet Amyloid Polypeptide, hydrophobic strongly amyloidogenic peptide produced in the pancreatic islet cells (KCNTATCATQRLANFLVHSSNNFGAILSSTNVGSNTY; not fully specified (C-terminus, bridges); cysteine pairing not given here; UniProt P10997 34-70, looked up)
- assembly state of human IAPP ([4]; neutral pH, 4°C, concentration as high as 255 µM (1 mg/mL), analytical ultracentrifugation and diffusion NMR, ref [24], [25]): kinetically stable state consisting of monomers and high molecular weight oligomers
- self-association of human IAPP ([4]; temperatures above 20°C, ref [24]-[27]): rapidly drives monomeric IAPP molecules toward oligo- and multimerization
